Results as given in patent US20250122301A1 (IBIO, published 2025).
Substitutions are numbered along the chain they refer to.

T1: CD25 on CD25+ cells (SUDHL-1, HEK IL-2 reporter cells, primary human regulatory T cells) (human, UniProt P01589 22-272)
T1 sequence (looked up): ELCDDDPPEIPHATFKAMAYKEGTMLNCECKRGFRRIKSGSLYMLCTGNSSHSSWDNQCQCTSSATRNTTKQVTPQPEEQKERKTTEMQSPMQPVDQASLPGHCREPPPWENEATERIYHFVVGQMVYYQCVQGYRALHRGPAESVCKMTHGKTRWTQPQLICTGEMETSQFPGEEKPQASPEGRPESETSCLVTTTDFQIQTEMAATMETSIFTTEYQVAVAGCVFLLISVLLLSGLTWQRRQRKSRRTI

T2: full-length CD25 (human CD25, recombinant protein used on biosensors) (human, UniProt P01589 22-213, limits assumed)
T2 construct: Printed only as Human CD25 / full-length CD25; also called CD25 antigen; alpha chain of the IL-2 receptor
T2 sequence (looked up): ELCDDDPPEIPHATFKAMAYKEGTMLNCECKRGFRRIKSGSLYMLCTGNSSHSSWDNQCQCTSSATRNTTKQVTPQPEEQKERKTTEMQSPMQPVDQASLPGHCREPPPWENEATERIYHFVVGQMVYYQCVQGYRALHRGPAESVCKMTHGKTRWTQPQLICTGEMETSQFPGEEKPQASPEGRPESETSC

B1: D5 Fab (Fab, V domains shown)
VH: HVQLQQSGAELVRPGTSVKISCKASGYTFTNYWLGWVKQRPGHGLEWIGDIYPGGGYTNYNEKFKGKATLTADTSSSTAYMQLSSLTSEDSAVYFCARVTPASWGQGTSLTVSS
VL: DIVMTQSQKFMSTSVGDRVSVTCKASQNVGTNVAWYQQKPGQSPKALIYSASYRYSGVPDRFTGSGSGTDFTLTISNVQSEDLAEYFCQQYNSYPYTFGGGTKLEMK
notes: Fab from mouse immune phage library, expressed in E. coli; also called Fab clone D5
B2: D16 Fab (Fab, V domains shown)
VH: B1 VH with H1Q, L4M, S109T
VL: B1 VL with V3Q, Y96W, M106I
notes: Fab; also called Fab clone D16
B3: D17 Fab (Fab, V domains shown)
VH: B1 VH with H1Q, V2I, S109T, S114A
VL: B1 VL with V3L, M4L, Y96L, M106I
notes: Fab; also called Fab clone D17
B4: D36 Fab (Fab, V domains shown)
VH: QVQLQQPGAELVRPGVSLKISCKGSGYTFTDYAMHWVRQSHAKSLEWIGVISTYSGDALYNQKFKGKATMTVDKSSSTAYLELARLTSEDSAIYYCARGVTFDYWGQGTTLTVSS
VL: DVVMTQSPASLSASVGETVTITCRASENSYSYLEWYQQKQGKSPQLLVYNAKTLAEGVPSRFSGSGSGTQFSLKINSLQPEDFGTYYCQHHYGTPYTFGGGTKLEMK
notes: Fab; also called Fab clone D36
B5: D11 Fab (Fab, V domains shown)
VH: B4 VH with V2I, L59I, E89D, L111V
VL: DIQMTQTTSSLSASLGDRVTITCRASQDISNYLEWYQQKQGKSPQLLVYNAKTLAEGVPSRFSGSGSGTQFSLKINSLQPEDFGSYYCQHHYDTPYTFGGGTKLEIK
notes: Fab; also called Fab clone D11

target: T1, CD25 on CD25+ cells (SUDHL-1, HEK IL-2 …); assay: cell-based or functional assay

| Binder | pSTAT5 IC50 (1 ug/mL) [ng/ml] | pSTAT5 IC50 (2 ug/mL) [ng/ml] | pSTAT5 IC50 (5 ug/mL) [ng/ml] |
| --- | --- | --- | --- |
| B1 | 0.303 | 0.488 | 1.65 |
| B2 | 0.43 | 4.77 | 40.3 |
| B3 | 0.251 | 0.217 | 0.283 |
| B4 | 2.23 | 3.45 | 0.378 |
| B5 | 0.414 | 0.303 | 0.509 |

target: T2, full-length CD25 (human CD25, …); assay: Octet BLI, human CD25 on AR2G tip, Fab, pH 6.5
Procedure: For Octet Koff rate screening in raw supernatants, 50 ul of lysate was used in 384-well Pall ForteBio Octet plates. […] Briefly, Human CD25 was coupled to AR2G tips (1 ug/ml). For data collection, baseline was assessed in PBST 1% BSA buffer at pH 6.5 for 60 seconds. Tips were then moved to 50 ul lysate pH6.5 adjusted and association measured for 300 seconds. Finally, tips were moved to PBST 1% BSA buffer at pH 6.5. Tips were then regenerated with 200 mM Tris-Glycine, pH 2.5 and neutralization with PBST, 1% BSA, pH 6.5. For data analysis, Double referencing was performed on Octet HT 11.0 software (no CD25 on tip as well as blank reference well), for reference subtraction.

| Binder | koff [s⁻¹] |
| --- | --- |
| B1 | 0.00412 |
| B2 | 0.00591 |
| B3 | 0.00536 |
| B4 | 0.00172 |
| B5 | 0.00522 |

target: T2, full-length CD25 (human CD25, …); assay: Octet BLI, human CD25 on AR2G tip, Fab, pH 7.4

| Binder | koff [s⁻¹] |
| --- | --- |
| B1 | 0.00345 |
| B2 | 0.004 |
| B3 | 0.00337 |
| B4 | 0.000898 |
| B5 | 0.00452 |
